{"source": "ChEMBL document CHEMBL4476871", "about": "“SULFAMIDE AND SULFAMATE INHIBITORS OF hHint1” (2018)", "proteins": {"B1": {"name": "Adenosine 5'-monophosphoramidase HINT1 (Homo sapiens), P49773 (protein)", "chain": "MADEIAKAQVARPGGDTIFGKIIRKEIPAKIIFEDDRCLAFHDISPQAPTHFLVIPKKHISQISVAEDDDESLLGHLMIVGKKCAADLGLNKGYRMVVNEGSDGGQSVYHVHLHVLGGRQMHWPPG"}}, "key": {"[1]": {"compound": "Nc1nc2c(ncn2[C@@H]2O[C@H](COP(=O)(O)NCCc3c[nH]c4ccccc34)[C@@H](O)[C@H]2O)c(=O)[nH]1", "experiment": "(§1) Inhibition of full-length human N-terminal His6-tagged Hint1 expressed in Escherichia coli Rosetta 2 pLysS cells assessed as ratio of Kcat to Km"}, "[2]": {"compound": "Nc1ncnc2c1ncn2[C@@H]1O[C@H](COP(=O)(O)OC(=O)CCc2c[nH]c3ccccc23)[C@@H](O)[C@H]1O", "experiment": "as §1"}}}
{"protein": "B1", "values": [{"measurement": "kcat/Km", "setting": "[1]", "value": 1.1, "unit": "×10⁷ /M/s"}, {"measurement": "kcat/Km", "setting": "[2]", "value": 1.1, "unit": "×10⁷ /M/s"}]}
